Our source for the binding result and Kd values is PMC11334520, “In vitro higher-order oligomeric assembly of the respiratory syncytial virus M2-1 protein with longer RNAs”.

As a reminder, the Kd is the constant that tells how readily two partners part at equilibrium.

What all share (settings): protein: recombinant; tags: N-terminal His6-GFP, cleaved with TEV; chain copies: 4
Data set [1] deals with T1, M2-1 (human respiratory syncytial virus …, UniProt P04545 1-194).
T1 sequence: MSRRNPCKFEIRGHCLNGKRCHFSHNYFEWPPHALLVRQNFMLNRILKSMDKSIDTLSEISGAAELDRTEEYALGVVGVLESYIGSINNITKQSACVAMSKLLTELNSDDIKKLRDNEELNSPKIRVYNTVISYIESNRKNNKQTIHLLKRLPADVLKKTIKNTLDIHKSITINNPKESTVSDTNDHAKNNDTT
The data set can be described thus: SEC; excess RNA; EMSA: 20 mM HEPES pH 7.5, 200 mM NaCl, 2 mM TCEP, 5% glycerol, room temperature 1 h, 4% native PAGE, SYBR Gold; SEC: Superdex 200 Increase 10/300, buffer not given. A general note: Size exclusion chromatography separates by hydrodynamic size, large species first.

For data set [2], the target named is T1, M2-1. The data set can be described thus: EMSA; 0.5 uM RNA; Hill 0.83; EMSA: 20 mM HEPES pH 7.5, 200 mM NaCl, 2 mM TCEP, 5% glycerol, room temperature 1 h, 4% native PAGE, SYBR Gold; SEC: Superdex 200 Increase 10/300, buffer not given. On the technique in general: Mobility shift assays separate free from complexed probe on a gel.
Data set [3] addresses T1, M2-1. Nature of the data set: EMSA; 0.5 uM RNA; Hill 8.10; EMSA: 20 mM HEPES pH 7.5, 200 mM NaCl, 2 mM TCEP, 5% glycerol, room temperature 1 h, 4% native PAGE, SYBR Gold; SEC: Superdex 200 Increase 10/300, buffer not given.
The target of data set [4] is T1, M2-1. Nature of the data set: EMSA; 0.5 uM RNA; Hill 0.95; EMSA: 20 mM HEPES pH 7.5, 200 mM NaCl, 2 mM TCEP, 5% glycerol, room temperature 1 h, 4% native PAGE, SYBR Gold; SEC: Superdex 200 Increase 10/300, buffer not given.
In data set [5] the target is T1, M2-1. The data set can be described thus: EMSA; 0.5 uM RNA; Hill 5.17; EMSA: 20 mM HEPES pH 7.5, 200 mM NaCl, 2 mM TCEP, 5% glycerol, room temperature 1 h, 4% native PAGE, SYBR Gold; SEC: Superdex 200 Increase 10/300, buffer not given.

Take UUUUUUUUUUUUUUUU (ssRNA) [Poly16U]: in the data set with M2-1 [1], the binding result was “no binding”.

AAAAAAAAA (ssRNA) [Poly9A]: in the data set with M2-1 [2], the dissociation constant (Kd) worked out at 1940 nM.

On to UUUUUUUUUUUUUUUUUUUUUUUUUUUU (ssRNA) [Poly28U], for which, in the data set with M2-1 [1], the binding result is reported as “binds”.

Regarding AAAAAAAAAAAAAAAAAAAAAAAA (ssRNA) [Poly24A], the dissociation constant (Kd) with M2-1 [3] worked out at 4440 nM.

Take AAAAAAAAAAAAAA (ssRNA) [Poly14A]: the dissociation constant Kd in the data set with M2-1 [4] amounted to 580 nM.

Regarding CCCCCCCCCCCCCCCC (ssRNA) [Poly16C], in the data set with M2-1 [1], the binding result was “no binding”.

AGUUAAUUAAAAAUAG (ssRNA) [SH16(+)]: in the data set with M2-1 [1], the binding result is “binds”.

For AAAAAAAAAAAAAAAA (ssRNA) [Poly16A], the binding result with M2-1 [1] is listed as “binds”.

In the case of AAAAAAAAAAAAAAAAAAA (ssRNA) [Poly19A], in the data set with M2-1 [5], the dissociation constant Kd turned out to be 2720 nM.

On to UUUUUUUUUUUUUUUUUUUUU (ssRNA) [Poly21U], for which, in the data set with M2-1 [1], the binding result is “binds”.

For the molecule CUAUUUUUAAUUAACU (ssRNA) [SH16(-)], in the data set with M2-1 [1], the binding result was “no binding”.
